Measurements: doi:10.1101/2024.09.03.610921

Biological target: RAGE^23-341-His-FLAG (extracellular part of RAGE) (human (cDNA from HEK293T cells)) (UniProt Q15109)
Experiment: pull-down

Sequence of RAGE^23-341-His-FLAG (extracellular part of RAGE) (human (cDNA from HEK293T cells)) (Q15109 23-341): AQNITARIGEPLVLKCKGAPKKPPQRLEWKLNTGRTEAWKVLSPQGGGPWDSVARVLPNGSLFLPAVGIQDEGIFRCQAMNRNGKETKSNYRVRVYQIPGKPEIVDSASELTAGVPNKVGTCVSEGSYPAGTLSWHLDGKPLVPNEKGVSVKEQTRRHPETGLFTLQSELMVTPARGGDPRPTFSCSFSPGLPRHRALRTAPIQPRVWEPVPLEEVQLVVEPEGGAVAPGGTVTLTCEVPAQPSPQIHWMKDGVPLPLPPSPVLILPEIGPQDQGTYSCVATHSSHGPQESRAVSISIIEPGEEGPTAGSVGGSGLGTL

core histone complex purified from bovines
fold of histone complex precipitated, against RAGE^124-341: 2.4 fold
